Measured values as given in the supplement of paper PMC10567573.
± gives the standard deviation.

Assay: protein stability index of a GFP-peptide fusion (GPS, HEK-293T) (PSI 1-6); higher = more stable
[1] = treatment: DMSO, c terminus: a fixed tail appended
[2] = treatment: MLN4924 1 uM, 8 h, c terminus: a fixed tail appended
[3] = treatment: DMSO, c terminus: native
[4] = treatment: MLN4924 1 uM, 8 h, c terminus: native
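Also: 24-mer peptide tiles fused after GFP, lentivirally expressed, FACS-sorted into six equal bins by GFP/DsRed ratio, decoded by Illumina sequencing, PSI is the read-weighted mean bin number.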

| Sequence | protein stability index [1] | protein stability index [2] | protein stability index [3] | protein stability index [4] |
| --- | --- | --- | --- | --- |
| GRYPLIQTLRQELSLPYLPSGTPE [CHIT1] | 3.51 ± 0.26 | 3.47 ± 0.27 |  |  |
| GSDKCVFLKNTEVSSMECEKNLYW [CD69] | 3.06 ± 0.26 | 3.12 ± 0.36 |  |  |
| GSGGTRGPPSRGGHMDDGGYSMNF [RBMX] | 3.96 ± 0.24 | 4 ± 0.43 |  |  |
| GSKARAEGRGPVTPLHLDLTQLHR [PLEKHN1] | 3.52 ± 0.061 | 3.835 ± 0.001 |  |  |
| GTAGDSMSYHSGSVFSARDRDPNS [TNXB] | 4.66 ± 0.18 | 4.87 ± 0.14 |  |  |
| GTGAVVTSLFMTPLDVVKVRLQSQ [SLC25A39] | 2.18 ± 0.11 | 2.06 ± 0.52 |  |  |
| GTNTVSFYTLSPNSHFSLNVKTLK [PCDHGC5] | 2.4 ± 0.39 | 2.51 ± 0.21 |  |  |
| GVEVIVRISHTLYDLDKIIELNGG [CRY1] | 3.29 ± 1.2 | 2.57 ± 0.76 |  |  |
| GYGGGFSSSSSFGSGFGGGYGGGL [KRT16] | 2.47 ± 0.33 | 2.57 ± 0.14 |  |  |
| GYYSEKLEAIQLDGEILFSLLQKV [TBC1D10A] | 2.44 ± 0.59 | 2.53 ± 0.32 |  |  |
| HAGTVYGGVMYISGGITHDTFQKE [KLHL13] | 2.32 ± 0.24 | 2.31 ± 0.22 |  |  |
| HDDGYMICCDKCSVWQHIDCMGID [KMT2E] | 2.67 ± 0.29 | 2.92 ± 0.42 |  |  |
| HDSANCELPLLTPCSKAVMSQALK [ETS2] | 3.34 ± 0.28 | 3.45 ± 0.24 |  |  |
| HETRLVEVDSGRQIEYEYKLAQAL [LMNB1] | 3.81 ± 0.044 | 3.96 ± 0.29 |  |  |
| HEWKSLAPMDAPRYQHGIAVIGNF [KLHL13] | 2.22 ± 0.2 | 2.17 ± 0.26 |  |  |
| HFVDEHGKDQGINIRQKVKELVEF [CLINT1] | 3.26 ± 0.23 | 3.83 ± 0.28 |  |  |
| HGASAPSVSREARQTVPPLTVRLH [PWWP2B] | 3.76 ± 0.48 | 3.73 ± 0.12 |  |  |
| HGEEEVETFAFQAEIAQLMSLIIN [HSP90AB1] | 2.58 ± 0.33 | 2.95 ± 0.28 |  |  |
| HIFNTLRSHLIDKGMLTSTTEDE [CDS2] |  |  | 2.71 ± 0.042 | 3.23 ± 0.39 |
| HLANHDDLISKSFQGSQGRAYLFN [YPEL3] | 2.8 ± 0.075 | 3.03 ± 0.24 |  |  |
| HLIKHRRTHTGEQPYTCSICRRNF [ZNF75A] | 2.56 ± 0.28 | 2.99 ± 0.41 |  |  |
| HMFTPKLDKMLDPQVWREAATQVF [SLC6A17] | 2.11 ± 0.24 | 2.25 ± 0.47 |  |  |

| Sequence | protein stability index [1] | protein stability index [2] | protein stability index [3] | protein stability index [4] |
| --- | --- | --- | --- | --- |
| HPDDRPKLNKPPETLITTIDSSSS [CYB5A] | 4.85 ± 0.49 | 5.04 ± 0.32 |  |  |
| HPNIITLHDIFENKTDVVLILELV [DAPK3] | 2.54 ± 0.14 | 2.34 ± 0.23 |  |  |
| HTAKCEKLQKEKEELERRFEDEVK [MTUS2] | 5.57 ± 0.26 | 5.6 ± 0.07 |  |  |
| HTMEEEEDDDWGEDTTEEAQRRRM [EIF5] | 5.55 ± 0.35 | 5.63 ± 0.28 |  |  |
| HVPELEMLGRLGYLNHVRAASPQD [MNAT1] | 3.44 ± 0.2 | 3.45 ± 0.45 |  |  |
| IAAPHAGANVKPRNSTPPSLARNP [ZC2HC1A] | 4.35 ± 0.12 | 4.48 ± 0.25 |  |  |
| IDICHDHFGWYLGWGDCVWLPYLY [DHCR7] | 2.55 ± 0.12 | 3.3 ± 0.27 |  |  |
| IDLSAWCYYCQAYVHHQALLDVKN [HDAC6] | 2.73 ± 0.38 | 3.08 ± 1.2 |  |  |
| IGCKKPVSASGKEMDWAQMACHRC [SMG5] | 3.04 ± 0.34 | 3.48 ± 0.28 |  |  |
| IGMHREMQVNPISKRMGPMTVVRM [RHOBTB1] | 2.39 ± 0.44 | 2.39 ± 0.32 |  |  |
| IIANTMAFQNDVYEWARDHRAHHK [SCD] | 2.52 ± 0.17 | 2.86 ± 0.27 |  |  |
| IKPAPARAPACSPEAAAAQLRATA [FCHO1] | 3.53 ± 0.17 | 3.98 ± 0.13 |  |  |
| IKSHSSLPPNNSYADFERFSKVLE [DAPK3] | 2.81 ± 0.22 | 2.96 ± 0.39 |  |  |
| ILAAACESETRKAAKRMRLEIYQS [NOL4L] | 2.47 ± 0.24 | 2.54 ± 0.05 |  |  |
| ILAHLTGTEFMQDPDEEHLKKSSQ [PDLIM7] | 3.9 ± 0.13 | 4.16 ± 0.25 |  |  |
| ILDLLVLEQFLSILPKELQGWVRE [ZSCAN9] | 2.38 ± 0.45 | 2.19 ± 0.39 |  |  |
| ILDQTTSEDAVGGATLGQTTSEEA [HDAC6] | 5.42 ± 0.065 | 5.5 ± 0.15 |  |  |
| ILLDPILMFFIMAAMLSMVKYNSC [POMT2] | 3.27 ± 0.18 | 3.2 ± 0.05 |  |  |
| ILTIICYLGLPRLEFYRYYQQLKL [SLC29A1] | 3.31 ± 0.33 | 3.08 ± 0.56 |  |  |
| IMALVAAILLLVIIILIVMKYRT [VAMP4] |  |  | 3.07 ± 0.33 | 3.16 ± 0.07 |
| INRADYCPECYPDNPANRSLVLPW [TOR1AIP2] | 2.29 ± 0.33 | 2.76 ± 0.55 |  |  |
| IPMHIDHDRNMDWVSTQLQATCNV [FADS1] | 3 ± 0.28 | 3.24 ± 0.27 |  |  |

| Sequence | protein stability index [1] | protein stability index [2] | protein stability index [3] | protein stability index [4] |
| --- | --- | --- | --- | --- |
| IPPKSVNPTCMCCQATSSTACHIQ [FAM219A] | 3.7 ± 0.17 | 3.82 ± 0.26 |  |  |
| IQGQNKEMLAAACQMFLGKTEAEI [FLOT1] | 3.49 ± 0.15 | 3.42 ± 0.33 |  |  |
| IQNAHKNSTGSGRGKKLMVLTEPI [TPRG1] | 3.89 ± 0.24 | 3.66 ± 0.28 |  |  |
| IQPSSEGLGPTSEPFPSSDDSPRS [SPAG8] | 5.41 ± 0.21 | 5.35 ± 0.15 |  |  |
| IQSLTCEVDGLRGTNEALLRQLRE [PRPH] | 3.74 ± 0.4 | 3.96 ± 0.24 |  |  |
| IQVEDIRIRAILSTYRKRTPVMEG [LOXL2] | 2.13 ± 0.48 | 2.16 ± 0.35 |  |  |
| IQVLPKLSSSIIHEIDSILGNKPY [KCNAB2] | 1.98 ± 0.27 | 2.28 ± 0.27 |  |  |
| IRVRGQRASRLQAPVLVAAPHSTF [LPCAT4] | 2.6 ± 0.17 | 2.73 ± 0.22 |  |  |
| ISPWNLPLYLLTWKIAPAMAAGNT [ALDH8A1] | 3.06 ± 0.53 | 3.05 ± 0.62 |  |  |
| ITKAFHVRKANRIKECLSKGTFSD [RHOBTB1] | 2.7 ± 0.25 | 2.81 ± 0.51 |  |  |
| ITLDGGVLVHVQKWDGKSTTIKRK [FABP4] | 2.46 ± 0.38 | 3.06 ± 0.1 |  |  |
| ITLKYPHYFPVMKKCCIPETRRRM [NLN] | 2.1 ± 0.27 | 1.97 ± 0.37 |  |  |
| ITWIAGAVTKDFKLTDKHETVVSY [ACSBG2] | 2.3 ± 0.25 | 2.03 ± 0.33 |  |  |
| ITWNRVVLLHGPPGTGKTSLCKAL [TRIP13] | 2.32 ± 0.58 | 2.13 ± 0.2 |  |  |
| IYDLNIPAFVKFAYVAEREDELSL [NCK2] | 2.25 ± 0.39 | 2.51 ± 0.2 |  |  |
| IYLINQKWFGRKRTLSAFLCLGGL [SLC22A15] | 3.15 ± 0.26 | 3.01 ± 0.56 |  |  |
| IYVVGGFDGTAHLSSVEAYNIRTD [KLHL12] | 3.08 ± 0.28 |  |  |  |
| KAFLTKTMLIVHHRTHTGERPYGC [ZNF649] | 2.45 ± 0.3 | 2.03 ± 0.23 |  |  |
| KAILEQNFRDLVRDLEKQKEEVRA [TRIM29] | 4.43 ± 0.31 | 4.48 ± 0.24 |  |  |
| KALAIILHLLYLLEKVECTPSQEH [FEM1A] | 1.96 ± 0.35 | 1.99 ± 0.13 |  |  |
| KAQALRDNSTMGYMMAKKHLEINP [HSP90AB1] | 3.39 ± 0.14 | 3.5 ± 0.23 |  |  |
